Key:
Experiment in all cases: cell-based or functional assay
[1] = molecular target: HIV-1 Env of pseudovirus Du172 (HIV-1)
[2] = molecular target: HIV-1 JR-FL Env E168K, on pseudovirus (HIV-1 isolate JR-FL (clade B))
[3] = molecular target: HIV-1 Env of pseudovirus ZM233 (HIV-1)
[4] = molecular target: HIV-1 Env of pseudovirus PVO.4 (HIV-1)
[5] = molecular target: HIV-1 Env of isolate 94UG103 (clade A) (HIV-1)
[6] = molecular target: HIV-1 Env of isolate 92RW020 (clade A) (HIV-1)
[7] = molecular target: HIV-1 MGRM-C-026 Env (HIV-1 isolate MGRM-C-026 (clade C))
[8] = molecular target: HIV-1 93UG077 Env (HIV-1 isolate 93UG077 (clade A))
[9] = molecular target: HIV-1 APV17 envelope glycoprotein (Env), clade B pseudovirus (HIV-1)
[10] = molecular target: HIV-1 92TH021 envelope glycoprotein (Env), clade AE pseudovirus (HIV-1)
[11] = molecular target: HIV-1 94UG103 envelope glycoprotein (Env), clade A pseudovirus (HIV-1)
[12] = molecular target: HIV-1 92BR020 envelope glycoprotein (Env) on virus (HIV-1, clade B, isolate 92BR020)
[13] = molecular target: HIV-1 JRFL envelope glycoprotein (Env) on virus (HIV-1, clade B, isolate JRFL)
[14] = molecular target: HIV-1 APV17 envelope glycoprotein (Env) on virus (HIV-1, clade B, isolate APV17)
[15] = molecular target: HIV-1 APV6 envelope glycoprotein (Env) on virus (HIV-1, clade B, isolate APV6)
[16] = molecular target: HIV-1 JR-CSF Env S306A (HIV-1 (isolate JR-CSF, clade B)) (UniProt P20871)
[17] = molecular target: HIV-1 93IN905 Env (pseudovirus) (HIV-1)
[18] = molecular target: HIV-1 APV17 Env (pseudovirus) (HIV-1)
[19] = molecular target: HIV-1 92RW020 Env (pseudovirus) (HIV-1)
[20] = molecular target: HIV-1 92BR020 Env (pseudovirus) (HIV-1)
[21] = molecular target: HIV-1 envelope glycoprotein (Env) of isolate JRCSF (HIV-1) (UniProt P20871)
[22] = molecular target: HIV-1 envelope glycoprotein (Env) of isolate MGRM-D-001 (HIV-1)
[23] = molecular target: HIV-1 envelope glycoprotein (Env) of isolate MGRM-C-028 (HIV-1)
[24] = molecular target: HIV-1 envelope glycoprotein (Env) of isolate APV13 (HIV-1)
[25] = molecular target: HIV-1 JR-CSF Env R304A (HIV-1 (isolate JR-CSF, clade B)) (UniProt P20871)
[26] = molecular target: HIV-1 92RW020 envelope glycoprotein (Env) (HIV-1)
[27] = molecular target: HIV-1 MGRM-A-010 envelope glycoprotein (Env) (HIV-1)
[28] = molecular target: HIV-1 92BR020 envelope glycoprotein (Env) on pseudovirus (HIV-1)
[29] = molecular target: HIV-1 Env of isolate 92BR020 (subtype B), on pseudovirus (HIV-1)
[30] = molecular target: HIV-1 Env of pseudovirus 98CN006 (HIV-1)
[31] = molecular target: HIV-1 Env of isolate MG RM-D-001 (subtype D) (HIV-1)
[32] = molecular target: HIV-1 Env of isolate MGRM-Chronic-B-003 (subtype B), on pseudovirus (HIV-1)

Chain of 1443_C16 (PG16) (TCN-116) (antibody) (VH): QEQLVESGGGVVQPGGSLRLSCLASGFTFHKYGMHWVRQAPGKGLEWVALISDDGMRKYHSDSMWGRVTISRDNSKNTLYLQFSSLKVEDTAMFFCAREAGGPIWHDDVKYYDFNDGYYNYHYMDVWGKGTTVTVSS
Chain of 1443_C16 (PG16) (TCN-116) (antibody) (VL): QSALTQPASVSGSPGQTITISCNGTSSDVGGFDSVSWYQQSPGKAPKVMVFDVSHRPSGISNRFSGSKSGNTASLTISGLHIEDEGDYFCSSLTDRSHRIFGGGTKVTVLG
Chain of 5329_C19 (PGT-136) (antibody) (VH): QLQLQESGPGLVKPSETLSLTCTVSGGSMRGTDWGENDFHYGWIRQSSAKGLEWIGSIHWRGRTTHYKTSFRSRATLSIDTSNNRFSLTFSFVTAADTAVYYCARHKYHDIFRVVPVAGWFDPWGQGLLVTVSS
Chain of 5329_C19 (PGT-136) (antibody) (VL): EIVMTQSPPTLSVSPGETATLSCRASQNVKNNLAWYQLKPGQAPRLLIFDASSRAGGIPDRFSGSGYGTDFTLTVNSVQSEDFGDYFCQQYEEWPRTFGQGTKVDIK

1443_C16 (PG16) (TCN-116) (antibody)
IC50, pseudovirus neutralization (TZM-bl assay) [1]: < 0.01 µg/mL
IC50 (ug/ml), pseudovirus neutralization, TZM-bl assay [2]: 0.006 µg/mL
IC50, pseudovirus neutralization (TZM-bl assay) [3]: < 0.01 µg/mL
IC50, pseudovirus neutralization (TZM-bl assay) [4]: 12.3 µg/mL

1496_C09 (PG9) (TCN-109) (antibody)
Neutralization IC80 [5]: 1.95 µg/mL
Neutralization IC90 [5]: 5.54 µg/mL
neutralization IC50 [5]: 0.31 µg/mL
Neutralization IC80 [6]: 1.04 µg/mL
Neutralization IC90 [6]: 3.4 µg/mL
neutralization IC50 [6]: 0.161 µg/mL

4838_L06 (PGT-121) (antibody)
Neutralization IC95 [7]: 0.0687 µg/mL
Neutralization IC90 [8]: 0.369 µg/mL
Neutralization IC95 [8]: 0.74 µg/mL

4858_P08 (PGT-123) (antibody)
IC50, pseudovirus neutralization [9]: 0.18 µg/mL
IC80 (pseudovirus neutralization) [9]: 0.539 µg/mL
IC90 (pseudovirus neutralization) [9]: 1.01 µg/mL
IC95 (pseudovirus neutralization) [9]: 1.75 µg/mL
IC50, pseudovirus neutralization [10]: > 10 µg/mL
IC80 (pseudovirus neutralization) [10]: > 10 µg/mL
IC90 (pseudovirus neutralization) [10]: > 10 µg/mL
IC95 (pseudovirus neutralization) [10]: > 10 µg/mL
IC50, pseudovirus neutralization [11]: 0.846 µg/mL
IC80 (pseudovirus neutralization) [11]: 3.29 µg/mL
IC90 (pseudovirus neutralization) [11]: 8.56 µg/mL
IC95 (pseudovirus neutralization) [11]: > 10 µg/mL

4877_D15 (PGT-122) (antibody)
Neutralization IC80 [12]: 0.0929 µg/mL
Neutralization IC90 [12]: 0.168 µg/mL
Neutralization IC95 [12]: 0.289 µg/mL
neutralization IC50 [12]: 0.0337 µg/mL
Neutralization IC80 [13]: 0.166 µg/mL
Neutralization IC90 [13]: 0.342 µg/mL
Neutralization IC95 [13]: 0.659 µg/mL
neutralization IC50 [13]: 0.0471 µg/mL
Neutralization IC80 [14]: 1.76 µg/mL
Neutralization IC90 [14]: 3.58 µg/mL
Neutralization IC95 [14]: 6.92 µg/mL
neutralization IC50 [14]: 0.522 µg/mL
Neutralization IC80 [15]: 0.351 µg/mL
Neutralization IC90 [15]: 0.779 µg/mL
Neutralization IC95 [15]: 1.55 µg/mL
neutralization IC50 [15]: 0.0851 µg/mL

5123_A06 (PGT-125) (antibody)
Fold IC50 increase relative to wild-type [16]: 1.2 fold
Neutralization by PGT-125, IC50 [17]: 0.0137 µg/mL
Neutralization by PGT-125, IC80 [17]: 0.0494 µg/mL
Neutralization by PGT-125, IC90 [17]: 0.106 µg/mL
Neutralization by PGT-125, IC95 [17]: 0.216 µg/mL
Neutralization by PGT-125, IC50 [18]: 7.31 µg/mL
Neutralization by PGT-125, IC80 [18]: > 10 µg/mL
Neutralization by PGT-125, IC90 [18]: > 10 µg/mL
Neutralization by PGT-125, IC95 [18]: > 10 µg/mL
Neutralization by PGT-125, IC50 [19]: 0.0028 µg/mL
Neutralization by PGT-125, IC80 [19]: 0.011 µg/mL
Neutralization by PGT-125, IC90 [19]: 0.0248 µg/mL
Neutralization by PGT-125, IC95 [19]: 0.0526 µg/mL
Neutralization by PGT-125, IC50 [20]: 0.0214 µg/mL
Neutralization by PGT-125, IC80 [20]: 0.0738 µg/mL
Neutralization by PGT-125, IC90 [20]: 0.156 µg/mL
Neutralization by PGT-125, IC95 [20]: 0.323 µg/mL

5141_B17 (PGT-126) (antibody)
Neutralization IC80 [21]: 0.018 µg/mL
Neutralization IC90 [21]: 0.0339 µg/mL
Neutralization IC95 [21]: 0.0608 µg/mL
neutralization IC50 [21]: 0.0061 µg/mL
Neutralization IC80 [22]: 0.333 µg/mL
Neutralization IC90 [22]: 0.832 µg/mL
Neutralization IC95 [22]: 1.8 µg/mL
neutralization IC50 [22]: 0.0639 µg/mL
Neutralization IC80 [23]: 2.62 µg/mL
Neutralization IC90 [23]: > 10 µg/mL
Neutralization IC95 [23]: > 10 µg/mL
neutralization IC50 [23]: 0.283 µg/mL
Neutralization IC80 [24]: 0.0411 µg/mL
Neutralization IC90 [24]: 0.084 µg/mL
Neutralization IC95 [24]: 0.162 µg/mL
neutralization IC50 [24]: 0.012 µg/mL

5145_B14 (PGT-127) (antibody)
Fold IC50 increase relative to wild-type [25]: 0.4 fold

5329_C19 (PGT-136) (antibody)
Neutralization IC80 [26]: > 10 µg/mL
Neutralization IC90 [26]: > 10 µg/mL
Neutralization IC95 [26]: > 10 µg/mL
neutralization IC50 [26]: 0.738 µg/mL
Neutralization IC80 [27]: > 10 µg/mL
Neutralization IC90 [27]: > 10 µg/mL
Neutralization IC95 [27]: > 10 µg/mL
neutralization IC50 [27]: > 10 µg/mL

5343_B08 (PGT-135) (antibody)
Neutralization IC80 [28]: 0.253 µg/mL
Neutralization IC90 [28]: 0.43 µg/mL
Neutralization IC95 [28]: 0.72 µg/mL
neutralization IC50 [28]: 0.104 µg/mL

PGV04 (antibody)
IC50, single-round pseudovirus neutralization [29]: 0.25 µg/mL
IC50, pseudovirus neutralization [30]: 1.32 µg/mL
IC50 (µg/mL), pseudovirus neutralization [31]: > 50 µg/mL
IC50, single-round pseudovirus neutralization [32]: 0.258 µg/mL
